The results in this text go back to patent publication US10160812B2, “Bispecific HER2 antibodies” (MedImmune, LLC, priority 2014, dated 2018).

In one assay the test system is ST225 model. In words: PDX tumor model (HER2-3+ breast cancer). The class given is in vivo, Athymic nude mice. The settings on record: Bs2-4T at 3 mg/kg. The method, then: All mouse experiments were carried out in compliance with the guidelines published by the Association for Assessment and Accreditation of Laboratory Animal Care (AAALAC) and protocols approved by the MedImmune Institutional Animal Care and Use Committee. Athymic nude mice between 4-8 weeks of age were used in the studies. In subcutaneous CBX models, animals were injected unilaterally on the right flank with tumor cells harvested from culture at a specific passage lot. In orthotopic CBX models, xenografts were established by injecting 5×10^6 cells per mouse (suspended in 50% matrigel) into the mammary fat pad on the right flank of animals. In PDX models, animals are implanted unilaterally on the flank with tumor fragments harvested from host animals each implanted from a specific passage lot. Pre-study tumor volumes were recorded for each experiment beginning approximately one week prior to its estimated start date. When tumors reach the appropriate tumor volume initiation (TVI) range (typically 150-250 mm^3), animals are randomized into treatment and control groups and dosing initiated. […] Animals were observed daily and tumor dimensions and body weights were measured and recorded twice weekly. Tumor volumes are calculated using the following formula: tumor volume=π÷6 (length×width^2). […]

For assay [1], the target named is T1, chimeric human/mouse Her2 variants (Homo sapiens, UniProt P04626, P283L/V272I).
T1 construct: His tag; made in house; host or cells: HEK293F (transient, pEBNA vector; captured from culture supernatant)
In words: ProteOn SPR binding of 39S to captured chimeric Her2 variants. Conditions: variant KO_250-261. An excerpt:
(§1) The domain II of human HER2 was identified as the epitope of 39S by swapping domains between human and mouse Her2 molecules. Mouse Her2 was chosen as the chimeric partner because it is not recognized by 39S, but shares 85% sequence identity with human HER2. Chimeric variants targeting each domain of HER2 were constructed (see method below) as listed in Table 4, including four knock-out (KO, loss-of-function) variants replacing domain I, II, III, or IV of human HER2 with the mouse counterpart, and one knock-in (KI, gain-of-function) variant grafting the domain II of human HER2 into mouse Her2 molecule. The chimeric variant nomenclature denotes types of variants (KO/KI) and the number of domains swapped. The binding profiles of 39S to these variants were characterized using a SPR based instrument ProteOn™ by capturing variants on sensor surfaces using anti-human and mouse Her2 polyclonal antibodies (see method below). The expression of the variants was monitored by anti-His polyclonal antibody using ProteOn™. […] Therefore, the domain II (amino acid 146-310) of human HER2 was identified as the epitope-containing domain of 39S by both loss-of-function and gain-of-function variants.
(§2) We further refined the epitope of 39S and identified the region of amino acid 192-208 in domain II as the critical epitope region. […] Seven knock-out variants were generated by replacing each of the following human HER2 regions with the mouse counterparts, including amino acids 146-208, 159-162, 171-187, 192-208, 250-261, 276-285, and 295-296. In addition, one knock-in variant was constructed by grafting the region of amino acid 192-208 of human HER2 to the mouse molecule. The variant nomenclature denotes types of variants (KO/KI) and the swapped regions with amino acid numbering. All variants had detectable expression levels by anti-His polyclonal antibody (Table 4). […] The binding of 39S was not impacted when substituting any other regions of human HER2 with mouse amino acids (KO_159-162, KO_171-187, KO_250-261, KO_276-285, and KO_295-296). […] Taken together, the region of amino acid 192-208 in domain II of human HER2 was identified as the functional epitope of 39S.
(§3) The variant nomenclature denotes types of variants (KO/KI) and the swapped regions with amino acid numbering. Amino acid positions were denoted basing on the numbering scheme of mature human HER2 sequences without its signal peptide. The expression levels of all variants were monitored by an anti-His polyclonal antibody. The binding profiles of 39S to these variants were characterized using a SPR based instrument ProteOn™ by capturing variants on sensor surfaces using anti-human and mouse Her2 polyclonal antibodies.
(§4) Construction and expression of chimeric human/mouse Her2 variants were constructed as follows. Briefly, DNAs encoding chimeric human/mouse Her2 variants with a His tag were assembled and amplified by overlapping PCR using human and mouse Her2 plasmids as templates (MedImmune). The assembled DNAs were cloned into the mammalian expression vector pEBNA (MedImmune). HEK293F cells were then transiently transfected with the various constructs using 293fectin and standard protocols according to the manufacturer's instructions (Invitrogen).
(§5) The binding characteristics of 39S to chimeric human/mouse variants were studied using a ProteOn™ XPR36 instrument (BioRad). Standard amine coupling was used to immobilize an anti-human or mouse Her2 polyclonal antibody (R&D System) in 10 mM sodium acetate (pH 5.0) to the surface of a GLC biosensor chip at ˜5000 resonance units (RU) for each channel. The chimeric proteins in cell culture supernatant were injected and captured by anti-human or mouse polyclonal antibodies onto the GLC surface with a ˜200RU response. Anti-HER2 mAb 39S was diluted in phosphate-buffered saline (PBS) (pH 7.4) with 0.005% Tween-20 from 10 nM to 0.625 nM (1:2 dilution), and injected at 100 μL/min for 180 sec with a 600-second dissociation time. […]
(Surface plasmon resonance follows binding to a sensor surface in real time, without labels.)

In assay [2] the target is T2, chimeric human/mouse Her2 variants (Mus musculus, UniProt P70424, A197S/A354V/A504E/D184L/D202G/D360A/D439N/E308D/E418D/E503D/E575V/E586V/E640D/F420L/G218R/G341R/G353E/G389N/G498A/G506V/G558A/H204R/H397Q/H452S/I215S/I220V/I273V/I357V/I623A/K394Q/K549Q/K559R/L174F/L284P/L507G/M185I/N203S/N319H/N385D/N479H/N513H/P182L/P194H/P210S/P318L/Q421P/R175H/R231P/R430Q/R471H/R557N/R641K/S223G/S387A/S453W/S497T/S514Q/S573G/S580P/S594P/S595P/S596F/T199M/T222A/T299A/V173I/V183T/V390T/V511A/W548L/Y578F/Y617F).
T2 construct: His tag; made in house; host or cells: HEK293F (transient, pEBNA vector; captured from culture supernatant)
The description is as above. The settings on record: variant KO_I, swapped human HER2 amino acids 1-145; apparent affinity, variant captured on chip.
Text: as §1, §2, §3, §4, §5

The target of assay [3] is T3, chimeric human/mouse Her2 variants (Homo sapiens, UniProt P04626, I184M/L181P/L183D/T182V).
T3 construct: His tag; made in house; host or cells: HEK293F (transient, pEBNA vector; captured from culture supernatant)
The description is as above. The settings on record: variant KO_159-162.
Text: as §1, §2, §3, §4, §5

In the case of T-DM1 [reference compound], the “in vivo activity (tumor growth)” value with ST225 model is given as “tumor stasis”.

B1: 39S: lead optimized monoclonal antibody derived from the 1.39.1 antibody; VH SEQ ID NO:15, VL SEQ ID NO:16 (antibody, V domains shown)
VH: EVQLVESGGGLVKPGGSLRLSCAASGFTFSSYSMSWVRQAPGKGLEWVSSISSSSSYIYYADSVKGRFTISRDNAKNSLYLQMNSLRAEDTAVYYCARGGDAYNYYYFDYWGQGTLVTVSS
VL: DIVMTQTPLSLSVTPGQPASISCKSSQSVFFRSNNKNILAWYLQKPGQPPQLLIYWASSRESGVPDRFSGSGSGTDFTLKISRVEAEDVGVYYCQQYFGSPFTFGPGTKVDIK
For the molecule B1, the “The binding affinity of 39S (KD)” value in assay [1] was “not impacted”; in assay [2] it was “retained binding”; in assay [3], “not impacted”. For the same molecule, the Kd in assay [2] worked out at 0.095 nM.
